From article PMC7793685
Substitutions are numbered along the chain they refer to.

Columns and labels:
[1] = test system: T1, MBP-MogR (Bacillus thuringiensis 407), ORF:ee0ae10c; experiment: EMSA
T1 sequence: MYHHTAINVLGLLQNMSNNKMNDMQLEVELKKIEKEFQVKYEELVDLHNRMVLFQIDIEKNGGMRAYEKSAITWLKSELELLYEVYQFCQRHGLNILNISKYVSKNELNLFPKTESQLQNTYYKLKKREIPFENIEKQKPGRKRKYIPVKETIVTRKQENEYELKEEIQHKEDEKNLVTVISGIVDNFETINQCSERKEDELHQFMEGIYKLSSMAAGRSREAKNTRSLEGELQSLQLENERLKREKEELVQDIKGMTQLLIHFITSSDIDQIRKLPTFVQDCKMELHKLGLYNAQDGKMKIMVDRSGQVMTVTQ

[2] = test system: T2, MBP-MogRQN→AA Q119A;N120A (Bacillus thuringiensis 407), ORF:ee0ae10c; experiment: EMSA
T2 sequence: T1 sequence with Q119A, N120A

With “CAACTATCATAATATCACCTTTTCGGTAAACAAAGATAATCTAATATTAGAGTTTTTTTTTAAAGTTTGCAATAATCCTTTTAATAATTATGTAATAAAAAATGAATATATTGTTAAACTGTTATTTTTTTATATTTATTAATTCGAATTTTTAGTTGACACCCG (double strand) [fla promoter fragment]” the binding [1] was “binds” and the binding [2] was “no binding”.

With “TTACAGAAATGAAATTTACGGATAACTATATTTATATAATTTTTTCGGTTCATATTTTTATTTAACAGTAAATTATCGATCGTAATCGACAAAATTTTTCTATTTACGCATTAAAAATTTAATGTTTTAATGAACAACATAACTGGTATGACCAGACAGAAAGGATAAGG (double strand) [hbl promoter fragment]” the binding [1] was “binds”.
